Reference: the supplement of paper PMC10567573
± gives the standard deviation.

Experiment: protein stability index of a GFP-peptide fusion (GPS, HEK-293T) (PSI 1-6); higher = more stable
Details: c terminus: a fixed tail appended
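Further: 24-mer peptide tiles fused after GFP, lentivirally expressed, FACS-sorted into six equal bins by GFP/DsRed ratio, decoded by Illumina sequencing, PSI is the read-weighted mean bin number.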

| Sequence | protein stability index (treatment: DMSO) | protein stability index (treatment: MLN4924 1 uM, 8 h) |
| --- | --- | --- |
| SSTLNPSTSSSTQGDPAFPEMNGN [NOL4L] | 5.44 ± 0.25 | 5.44 ± 0.2 |
| HQVTVNESLLAPLNVELDPEIQKV [KRT71] | 4.73 ± 0.2 | 4.45 ± 0.15 |
| LFTDLFDRKGYMFDYEYDWIGKQL [CSNK1G3] | 2.24 ± 0.32 | 2.15 ± 0.3 |
| QGFSYSKSNGRGGSQAGGSGSAGQ [MYOZ1] | 4.76 ± 0.18 | 5.02 ± 0.16 |
| GSKLEKGHLRGPEIRDWRGPQLEG [ZSWIM9] | 3.87 ± 0.35 | 3.85 ± 0.2 |
| GLLLGSHGLLGSPVRAAASSPVTT [CDC25B] | 2.74 ± 0.28 | 3.26 ± 0.31 |
| PLSSQPQAIVTEDKTDISSGRARQ [MLH1] | 4.99 ± 0.14 | 5.15 ± 0.23 |
| TTLEIHNTEERQKRQVTHFQFLSW [PTPN9] | 2.28 ± 0.41 | 2.78 ± 0.59 |
| KRFQLTKLPPYLIFCIKRFTKNNF [USP39] | 2 ± 0.31 | 2.78 ± 0.81 |
| INYKLKSVAHLPWRMLTYKALNTF [CLPTM1] | 2.44 ± 0.65 | 2.31 ± 0.36 |
| KNDSLRKRYDGLKYDVKKVEEVVY [TSN] | 3.18 ± 0.22 | 3.32 ± 0.33 |
| YSIQERRPQLPQVLQHVRLPLLSP [KLHL20] | 3.4 ± 0.18 | 3.42 ± 0.32 |
| YYVLEPRVVDGTPCSPDSSSVCVQ [ADAMTS4] | 3.33 ± 0.35 | 3.21 ± 0.28 |
| QLQELLHHCDDHLSLYQLSLERGT [RSAD1] | 2.34 ± 0.24 | 2.58 ± 0.34 |
| TGPAWNVLMWTMLFLGQGIQVSLY [SOAT2] | 3.38 ± 0.42 | 3.26 ± 0.34 |
| EEIDVDGKFIRLKNTSEQDQPMGG [LMNB1] | 5.15 ± 0.46 | 5.47 ± 0.43 |
| LLHVSSPNLASDSDLSRRSSSTMS [KCNA1] | 4.26 ± 0.069 | 4.37 ± 0.055 |
| KTVLMIAIQLLSRMEYVHSKNLIY [CSNK1G1] | 3.04 ± 0.1 | 3.23 ± 0.54 |
| EYIDPETKKHIPYREHKSLTGTAR [CSNK1G1] | 4.15 ± 0.28 | 4.08 ± 0.42 |
| MRTTNLDNRCKLFDSPSLCSSSTR [CDC25A] | 3.21 ± 0.4 | 3.18 ± 0.24 |
| PGHGGIMDRFDCQYLMATFVHVYI [CDS1] | 3.26 ± 0.46 | 3.1 ± 0.3 |
| CWPMMDFLRCVTAALIYFAISITA [CMTM3] | 3.23 ± 0.49 | 3.34 ± 0.26 |
| LEFSLLSYAFGKFPTVVWTWWIMF [SOAT1] | 2.98 ± 0.6 | 2.95 ± 0.59 |

| Sequence | protein stability index (treatment: DMSO) | protein stability index (treatment: MLN4924 1 uM, 8 h) |
| --- | --- | --- |
| AGKALVISGREVFEFRPELVNDDD [ZC3H15] | 4.21 ± 0.57 | 4.23 ± 0.35 |
| TGVVEFVRKEDMTYAVRKLDNTKF [SRSF1] | 3.02 ± 0.3 | 3.26 ± 0.29 |
| LPAGAGAPKAGLEEAPAVTAGLKI [TNFSF13B] | 4.65 ± 0.3 | 4.65 ± 0.15 |
| SMSTRRLGVAVAVLGGFLYAVGGS [KLHL20] | 2.29 ± 0.42 | 2.67 ± 1.2 |
| KLILGMPTYGRSFTLASSSDTRVG [CHIT1] | 2.42 ± 0.36 | 2.46 ± 0.22 |
| VSGGSAGGYGGGVSCGFGGGAGSG [KRT13] | 3.47 ± 0.38 | 3.55 ± 0.19 |
| MSLHGASGGHERSRDRRRSSDRSR [BTBD10] | 5.05 ± 0.16 | 5.19 ± 0.22 |
| EEEEEEEGSGHSTGEDSAFQEPDS [WEE1] | 5.7 ± 0.16 | 5.62 ± 0.11 |
| VVNKYQINGLQAWLLTHLLWFANA [DHCR7] | 2.9 ± 0.28 | 2.75 ± 0.34 |
| EGRLERRECGLAAPRFSFNDPSGS [IRX6] | 3.79 ± 0.27 | 3.98 ± 0.2 |
| WEQPWASEVFGPERMPPSGAARSF [PXN] | 3.73 ± 0.33 | 3.45 ± 0.11 |
| ERLQAAGTDSAGPKTVPSHVFSEL [ELOA2] | 4.06 ± 0.15 | 4.4 ± 0.14 |
| FLVSTHTGEVRTARALLEDDSDTQ [PCDHGC5] | 4.63 ± 0.22 | 4.76 ± 0.24 |
| FGGVIAFSSYNKQDNNCHFDAALV [SLC6A17] | 2.42 ± 0.32 | 2.43 ± 0.45 |
| GVGKSALTVQFVQGIFVEKYDPTI [RAP1B] | 2.25 ± 0.28 | 2.07 ± 0.25 |
| FAESLQCKVDCEANLTPNVGGYFV [P3H4] | 2.22 ± 0.9 | 2.42 ± 0.65 |
| MLSWILRINLVAAIFSAPAFPAAV [PSD2] | 3.23 ± 0.19 | 2.89 ± 0.39 |
| KALFTCPFNGDCRITKDNRRHCQA [VDR] | 2.84 ± 0.31 | 3.21 ± 0.42 |
| YLKSCRRMKKNGMEMTRPTPPHLT [NOL4L] | 2.89 ± 0.19 | 2.96 ± 0.25 |
| GRSSMGTGLSGGKRPSQEEDTQSI [CRY1] | 5.51 ± 0.17 | 5.37 ± 0.29 |
| HIGNSTQATVRDAVVGRPSMDKKA [ATL3] | 3.97 ± 0.21 | 4.49 ± 0.6 |
| GWLPSHEGHLDDGGYTPDLKMSYS [RBMY1A1] | 3.62 ± 0.15 | 3.5 ± 0.36 |
| ISKGEEPRAGKEESGVSVSNSQPT [SLC29A1] | 5.48 ± 0.24 | 5.52 ± 0.22 |

| Sequence | protein stability index (treatment: DMSO) | protein stability index (treatment: MLN4924 1 uM, 8 h) |
| --- | --- | --- |
| SEHFKTTSQKVARKFWWKNVKMIV [VAMP8] | 2.69 ± 0.24 | 2.61 ± 0.71 |
| GEREAIQKSVTRSCLLEEEEESGE [POP5] | 5.53 ± 0.33 | 5.65 ± 0.18 |
| EQLIEAISNGDFESYTKMCDPGMT [CAMK2A] | 3.92 ± 0.28 | 3.76 ± 0.44 |
| GIFPLSFVKILKDFPEEDDPTNWL [NCF4] | 2.6 ± 0.28 | 2.82 ± 0.33 |
| QKLQDVLHEALQDYEAGQHMEDPR [ESRRG] | 4.72 ± 0.34 | 5.13 ± 0.26 |
| TSGGLLSEAPNEKLFFVDTGSKEK [NOP53] | 4.92 ± 0.25 | 4.84 ± 0.68 |
| EACMTHLHYKWIPVEDSHTADISS [DUSP5] | 3.53 ± 0.23 | 3.63 ± 0.11 |
| SSRGAPRGGGRGGSRSDRGGGRSR [RBMX] | 5.34 ± 0.18 | 5.45 ± 0.28 |
| ASRTSTIFLNGNRERPLNVFCDME [TNXB] | 3.09 ± 0.42 | 3.07 ± 0.34 |
| ARGRHVGSSETNLLQHLLEACGRC [PYCR3] | 2.71 ± 0.88 | 3.17 ± 1.4 |
| IIELLEKDGMAFQEALDPGPFDQG [ELF3] | 3.58 ± 0.39 | 3.44 ± 0.32 |
| CPEGLEELLSAPPPDLGAQRRHGW [SPSB2] | 3.8 ± 0.34 | 3.83 ± 0.25 |
| SEATLPAQMSTLHVSPPPSADPAR [PDLIM4] | 5.26 ± 0.17 | 5.17 ± 0.18 |
| DKVSDGVTKSPEKRSSLPRPSSIL [MAP2] | 4.88 ± 0.14 | 4.99 ± 0.26 |
| TKTEDRELVLRKDCPKIVEPHGKM [ZSCAN9] | 4.79 ± 0.083 | 4.72 ± 0.28 |
| TVQDYQDLIDRGWRRSGKYVYKPV [ATE1] | 2.89 ± 0.21 | 3.03 ± 0.51 |
| AKLALFYDWLFFSPDKDSIMNIEP [INTS3] | 2.04 ± 0.34 | 1.9 ± 0.43 |
| YYLALLLSLLVMVISPVIQLQPTF [NSDHL] | 2.68 ± 0.37 | 2.91 ± 0.64 |
| HPTPFLAFLRRVKTCNPPDAGPMV [PTPRD] | 2.37 ± 0.12 | 2.26 ± 0.18 |
| DGDDKVFRRAPSWRKRFRPREHHG [PPFIA4] | 3.48 ± 0.55 | 4.58 ± 0.14 |
| SSGKNVTLLVCGKKAYDYFQAKKI [PDZK1] | 2.13 ± 0.26 | 2.57 ± 0.82 |
| KLVRSPSGLRMVPEHRAFGSPFGL [ZFYVE21] | 2.32 ± 0.076 | 2.28 ± 0.22 |
| GRLILSTIRLRPRQVLCEKCKSTL [PWWP2B] | 2.2 ± 0.4 | 2.56 ± 0.55 |

| Sequence | protein stability index (treatment: DMSO) | protein stability index (treatment: MLN4924 1 uM, 8 h) |
| --- | --- | --- |
| KHSTFGQSLTQRLHALKLRSPDAS [GNAS] | 3.37 ± 0.29 | 3.44 ± 0.2 |
| GTKCHGCDFKIDAGDRFLEALGFS [PDLIM7] | 2.63 ± 0.22 | 2.42 ± 0.36 |
| WFPLHLSRILKKTVYNEMDKNRCE [EDNRA] | 2.6 ± 0.84 | 1.98 ± 0.4 |
| TKPQNLNDAYGPPSNFLEIDVSNP [SNX3] | 4.46 ± 0.42 | 4.29 ± 0.47 |
| AQPNYIPTQQDVLRTRVKTTGIVE [GNAI1] | 4.19 ± 0.23 | 4.27 ± 0.36 |
| PISAIRHEGKTDSERTDTAADGET [EPB41L3] | 5.71 ± 0.19 | 5.74 ± 0.078 |
| ASSPSIRQKKLMHKLQEEKAFREE [CCDC70] | 4.24 ± 0.17 | 4.66 ± 0.14 |
| DRARRFEEALRKNTEEQLEIALAP [MTUS2] | 4.9 ± 0.22 | 4.85 ± 0.28 |
| KAMESQRAYRFVQGKDWGFKKFIR [SPOPL] | 2.22 ± 0.38 | 2.09 ± 0.21 |
| PFDMDSCLSRHSINPYSNRESRIL [DFFB] | 3.24 ± 0.29 | 3.22 ± 0.29 |
| EQKAAGSASAKRVWNMTATRPKKM [FATE1] | 4.43 ± 0.16 | 4.39 ± 0.22 |
| AAKMYHQLKKCETRKLSPGKKRCK [SMG5] | 3.92 ± 0.35 | 4.07 ± 0.37 |
| AQRSAHCSRPSGSSSSSGVLMVGP [CSNK1G1] | 3.65 ± 0.24 | 3.84 ± 0.14 |
| ASEYCPGKLSWGTMARALGRFKLS [WDR88] | 2.49 ± 0.42 | 2.67 ± 0.29 |
| RFFGPNAEISQPPALSQLVNLYLG [TCF25] | 3.05 ± 0.19 | 2.96 ± 0.36 |
| LTMAATFDDCLYALCVVDTIKRSS [GFOD1] | 2.54 ± 0.72 | 2.68 ± 0.57 |
| AADVWSLGVALFTMLAGHYPFQDS [TRIB3] | 2.96 ± 0.098 | 2.94 ± 0.2 |
| VGVRMRDVKCYQGTDIVRGCDPLV [ADAMTSL2] | 3.01 ± 0.29 | 3.09 ± 0.45 |
| LCARLAAGPGAAEPLPVERDPAAG [ZNF511] | 4.47 ± 0.21 | 4.6 ± 0.21 |
| EPSFAQFSQEIGLASLGASEEAVQ [TPH1] | 5.17 ± 0.61 | 4.99 ± 0.37 |
